# According to patent publication US20090191235A1:
# What was measured:
# [1] = target: 17b antibody; assay: SPR (Biacore); 17b on-rate with CD4 over without CD4
# [2] = target: 2-domain CD4 (UniProt P01730); assay: SPR (Biacore), 2-domain CD4 immobilised, gp120 analyte
# [3] = target: CD4 as used in isothermal titration calorimetry (UniProt P01730); assay: ITC, drawn table of thermodynamic values of CD4-gp120 binding
# [4] = target: CD4 as used in isothermal titration calorimetry (UniProt P01730); assay: ITC, drawn table of thermodynamic values, column 'Kd (nM) to sCD4'
# [5] = target: 2-domain CD4 (UniProt P01730); assay: ITC, titration of HXBc2 core with sCD4(D1D2) at 37°C, value in the box beside the curve
# [6] = target: 2-domain CD4 (UniProt P01730); assay: ITC, titration of HXBc2 core with sCD4(D1D2) at 37°C, stoichiometry marked at molar ratio 1.0 (CD4/core gp120)
substance,measurement,setting,value
"gp120 HXBc2 core, wild type (from UniProt P04578 83-492)",CD4 Induction,[1],79.9
same,Kd,[2],29.5 nM
same,-TΔS,[3],40 kcal/mol
same,ΔH,[3],-49.7 kcal/mol
same,Kd,[4],87 nM
same,-TΔS,[5],40 kcal/mol
same,Kd,[5],117 nM
same,ΔH,[5],-49 kcal/mol
same,n,[6],1
